US20030162228A1
Where no end group is shown, it is not given here.

B1: TAB1C24, fusion with the GAL4 transcription activated domain (pGAD-TAB1C24) (peptide, not shown: large carriers)
chain: YVDFAEFYRLWSVDHGEQSVVTAP
modifications: also: fusion with GAL4 transcription activation domain
B2: TAB1C23, fusion with the GAL4 transcription activated domain (pGAD-TAB1C23) (peptide, not shown: large carriers)
chain: VDFAEFYRLWSVDHGEQSVVTAP
modifications: also: fusion with GAL4 transcription activation domain
B3: TAB1C22, fusion with the GAL4 transcription activated domain (pGAD-TAB1C22) (peptide, not shown: large carriers)
chain: DFAEFYRLWSVDHGEQSVVTAP
modifications: also: fusion with GAL4 transcription activation domain
B4: TAB1C21, fusion with the GAL4 transcription activated domain (pGAD-TAB1C21) (peptide, not shown: large carriers)
chain: FAEFYRLWSVDHGEQSVVTAP
modifications: also: fusion with GAL4 transcription activation domain
B5: TAB1C20, fusion with the GAL4 transcription activated domain (pGAD-TAB1C20) (peptide, not shown: large carriers)
chain: AEFYRLWSVDHGEQSVVTAP
modifications: also: fusion with GAL4 transcription activation domain

What follows are binders tested against T1, TAK1 expressed from yeast 2-hybrid expression vector pBTMHu11F (Homo sapiens (Human)) (UniProt O43318) (assay: cell-based or functional assay).
T1 sequence: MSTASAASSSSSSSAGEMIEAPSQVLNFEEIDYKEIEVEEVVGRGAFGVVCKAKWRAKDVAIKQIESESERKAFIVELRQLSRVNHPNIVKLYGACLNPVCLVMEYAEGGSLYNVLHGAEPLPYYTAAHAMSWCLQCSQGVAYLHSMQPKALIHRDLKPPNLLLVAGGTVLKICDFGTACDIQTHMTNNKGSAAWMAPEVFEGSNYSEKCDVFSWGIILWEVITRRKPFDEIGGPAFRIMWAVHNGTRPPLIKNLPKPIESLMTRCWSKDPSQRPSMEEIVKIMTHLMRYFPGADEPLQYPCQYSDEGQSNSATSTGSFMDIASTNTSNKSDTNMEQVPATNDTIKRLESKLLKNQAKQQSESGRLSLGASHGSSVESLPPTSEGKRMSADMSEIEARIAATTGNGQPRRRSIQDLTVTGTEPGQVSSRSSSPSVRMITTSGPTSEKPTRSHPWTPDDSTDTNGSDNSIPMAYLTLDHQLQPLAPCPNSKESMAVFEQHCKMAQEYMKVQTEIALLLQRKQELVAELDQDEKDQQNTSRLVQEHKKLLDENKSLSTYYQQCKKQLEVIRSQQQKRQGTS
Binder B1 has a β-galactosidase activity of yeast L40 (yeast 2-hybrid), ratio based on TAB1C68 (ratio to TAB1C68) of 0.35.
Work on B2 yielded a β-galactosidase activity of yeast L40 (yeast 2-hybrid), ratio based on TAB1C68 (ratio to TAB1C68) of 0.05.
For B3, the β-galactosidase activity of yeast L40 (yeast 2-hybrid), ratio based on TAB1C68 (ratio to TAB1C68) was 0.03.
B4 gave a β-galactosidase activity of yeast L40 (yeast 2-hybrid), ratio based on TAB1C68 (ratio to TAB1C68) of 0.03.
Work on B5 yielded a β-galactosidase activity of yeast L40 (yeast 2-hybrid), ratio based on TAB1C68 (ratio to TAB1C68) of 0.03.
